This is an account of results in article doi:10.1101/2023.11.28.569054 (bioRxiv, 2023).

First the molecules themselves.
B1: NCLN (natural protein)
chain: AHEFTVYRMQQYDLQGQPYGTRNAVLNTEARTMAAEVLSRRCVLMRLLDFSYEQYQKALRQSAGAVVIILPRAMAAVPQDVVRQFMEIEPEMLAMETAVPVYFAVEDEALLSIYKQTQAASASQGSASAAEVLLRTATANGFQMVTSGVQSKAVSDWLIASVEGRLTGLGGEDLPTIVIVAHYDAFGVAPWLSLGADSNGSGVSVLLELARLFSRLYTYKRTHAAYNLLFFASGGGKFNYQGTKRWLEDNLDHTDSSLLQDNVAFVLCLDTVGRGSSLHLHVSKPPREGTLQHAFLRELETVAAHQFPEVRFSMVHKRINLAEDVLAWEHERFAIRRLPAFTLSHLESHRDGQRSSIMDVRSRVDSKTLTRNTRIIAEALTRVIYNLTEKGTPPDMPVFTEQMQIQQEQLDSVMDWLTNQPRAAQLVDKDSTFLSTLEHHLSRYLKDVKQHHVKADKRDPEFVFYDQLKQVMNAYRVKPAVFDLLLAVGIAAYLGMAYVAVQHFSLLYKTVQRLLVKAKTQ

What all share (experiment): cryo-EM structure
Assay [1] has as its target T1, EMC1 (human (endogenous in Expi293), UniProt Q8N766 23-993).
T1 sequence: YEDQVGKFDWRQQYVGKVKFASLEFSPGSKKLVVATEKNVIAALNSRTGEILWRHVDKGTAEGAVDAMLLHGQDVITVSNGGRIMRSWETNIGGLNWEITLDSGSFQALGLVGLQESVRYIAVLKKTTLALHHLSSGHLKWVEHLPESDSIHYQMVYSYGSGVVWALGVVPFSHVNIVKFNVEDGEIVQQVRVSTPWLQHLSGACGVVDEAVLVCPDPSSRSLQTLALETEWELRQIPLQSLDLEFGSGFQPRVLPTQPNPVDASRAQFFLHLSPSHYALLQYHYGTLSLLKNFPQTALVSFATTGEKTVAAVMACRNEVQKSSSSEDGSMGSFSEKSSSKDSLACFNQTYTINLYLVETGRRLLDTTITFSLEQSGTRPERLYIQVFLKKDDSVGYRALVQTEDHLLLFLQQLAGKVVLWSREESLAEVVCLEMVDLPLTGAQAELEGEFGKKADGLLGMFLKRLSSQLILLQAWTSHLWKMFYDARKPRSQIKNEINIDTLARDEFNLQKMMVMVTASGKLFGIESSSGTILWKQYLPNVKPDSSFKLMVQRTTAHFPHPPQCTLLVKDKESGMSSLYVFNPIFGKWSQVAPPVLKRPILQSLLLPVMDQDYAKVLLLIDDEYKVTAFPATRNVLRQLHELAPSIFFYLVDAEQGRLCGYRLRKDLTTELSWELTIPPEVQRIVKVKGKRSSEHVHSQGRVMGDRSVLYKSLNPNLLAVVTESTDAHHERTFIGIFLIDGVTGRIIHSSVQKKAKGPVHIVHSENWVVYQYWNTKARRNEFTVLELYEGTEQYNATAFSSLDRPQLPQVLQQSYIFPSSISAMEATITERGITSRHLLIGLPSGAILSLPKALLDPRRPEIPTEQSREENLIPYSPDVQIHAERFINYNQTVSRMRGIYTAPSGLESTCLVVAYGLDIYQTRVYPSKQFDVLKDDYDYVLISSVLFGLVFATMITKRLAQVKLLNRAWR

Assay [2] deals with T2, TMEM147 of TMEM147-5aa-TEV-GFP-40aa(ALFA)-EMC2 (human, UniProt Q9BVK8 1-224).
T2 sequence: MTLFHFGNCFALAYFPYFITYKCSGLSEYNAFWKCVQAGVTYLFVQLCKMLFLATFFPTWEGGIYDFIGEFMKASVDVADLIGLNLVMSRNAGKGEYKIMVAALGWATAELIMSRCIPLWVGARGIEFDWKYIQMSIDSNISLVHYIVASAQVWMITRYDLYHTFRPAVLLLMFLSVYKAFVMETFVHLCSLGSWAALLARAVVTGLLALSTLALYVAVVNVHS

Assay [3] has as its target B1.
Assay [4] addresses T3, NCLN of BOS (tNOMO) (human, UniProt Q969V3 43-563).
T3 sequence: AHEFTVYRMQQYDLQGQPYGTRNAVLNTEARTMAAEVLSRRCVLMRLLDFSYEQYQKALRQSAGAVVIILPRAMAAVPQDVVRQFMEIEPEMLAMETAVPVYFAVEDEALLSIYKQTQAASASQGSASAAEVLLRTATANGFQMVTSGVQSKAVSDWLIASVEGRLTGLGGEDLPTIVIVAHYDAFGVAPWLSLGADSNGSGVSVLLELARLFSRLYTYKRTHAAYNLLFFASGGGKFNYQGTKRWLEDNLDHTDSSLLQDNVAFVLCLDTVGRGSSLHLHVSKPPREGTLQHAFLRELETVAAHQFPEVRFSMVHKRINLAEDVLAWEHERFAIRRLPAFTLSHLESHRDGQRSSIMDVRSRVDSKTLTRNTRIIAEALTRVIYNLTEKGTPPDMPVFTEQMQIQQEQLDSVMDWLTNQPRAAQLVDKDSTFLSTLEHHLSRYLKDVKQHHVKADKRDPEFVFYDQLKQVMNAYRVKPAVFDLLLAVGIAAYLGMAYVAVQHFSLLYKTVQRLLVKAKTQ

On to B1, for which the binding result in assay [1] was “binds”.

B2: EMC5 (natural protein)
chain: MAPSLWKGLVGIGLFALAHAAFSAAQHRSYMRLTEKEDESLPIDIVLQTLLAFAVTCYGIVHIAGEFKDMDATSELKNKTFDTLRNHPSFYVFNHRGRVLFRPSDTANSSNQDALSSNTSLKLRKLESLRR
Consider B2, for which, in assay [2], the binding result is recorded as “binds”.

B3: TMEM147-GFP (natural protein)
chain: MTLFHFGNCFALAYFPYFITYKCSGLSEYNAFWKCVQAGVTYLFVQLCKMLFLATFFPTWEGGIYDFIGEFMKASVDVADLIGLNLVMSRNAGKGEYKIMVAALGWATAELIMSRCIPLWVGARGIEFDWKYIQMSIDSNISLVHYIVASAQVWMITRYDLYHTFRPAVLLLMFLSVYKAFVMETFVHLCSLGSWAALLARAVVTGLLALSTLALYVAVVNVHS
As to B3, in assay [3], the binding result was “binds”.

B4: TMEM147 (from TMEM147-TEV-GFP, tag removed) (natural protein)
chain: MTLFHFGNCFALAYFPYFITYKCSGLSEYNAFWKCVQAGVTYLFVQLCKMLFLATFFPTWEGGIYDFIGEFMKASVDVADLIGLNLVMSRNAGKGEYKIMVAALGWATAELIMSRCIPLWVGARGIEFDWKYIQMSIDSNISLVHYIVASAQVWMITRYDLYHTFRPAVLLLMFLSVYKAFVMETFVHLCSLGSWAALLARAVVTGLLALSTLALYVAVVNVHS
In the case of B4, the binding result in assay [4] is on record as “binds”.
